Columns and labels:
[1] = target: T1, human PSMA on cells (Cho-hPSMA, CHO-K1 cells overexpressing full-length human PSMA) (human, UniProt Q04609 1-750); test: cell-based or functional assay
hCTLA4 = hCTLA4 (human, UniProt P16410 36-161); test: ELISA
hPDL1 = hPDL1 (human, UniProt Q9NZQ7 19-238); test: ELISA
[2] = target: T1, human PSMA on cells (Cho-hPSMA, CHO-K1 …); test: flow cytometry, Cho-hPSMA cells
Procedure: The binding activity of antibodies to the stably transfected cell strain Cho-hPSMA, which overexpresses human PSMA, was measured by flow cytometry in this test example. The full-length gene encoding human PSMA was cloned into the mammalian cell expression vector pCDH. HEK293T cells (ATCC® CRL-11268) were co-transfected with three plasmids-pVSV-G, pCMV-dR8.91, and pCDH-human PSMA- to package viruses. After 48 h of transfection, viruses were collected to infect CHO-K1 cells.
Experiment 1: Cho-hPSMA was cultured in F12 medium with 10% FBS. The medium to which cells were inoculated was incubated in a 37° C., 5% CO₂ incubator for 2 days, and cells were added to a cell plate at 1×10⁵ cells/well and washed by centrifugation. Antibodies were serially diluted, and the antibody solutions were added to the cell plate at 100 μL/well. The plate was incubated at 4° C. for 1 h and then washed. An AF488-Goat Anti-human IgG Fc fluorescent secondary antibody dilution (1:400) was added to the cell plate at 100 μL/well, and the plate was incubated at 4° C. for 1 h and then washed. PBS was added to the cell plate at 100 μL/well before plate reading.

hCTLA4, sequence (P16410 36-161 limits assumed): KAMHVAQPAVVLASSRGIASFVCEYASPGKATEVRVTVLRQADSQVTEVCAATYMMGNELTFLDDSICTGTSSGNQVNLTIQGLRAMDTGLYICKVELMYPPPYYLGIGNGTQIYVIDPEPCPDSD
hPDL1, sequence (Q9NZQ7 19-238 limits assumed): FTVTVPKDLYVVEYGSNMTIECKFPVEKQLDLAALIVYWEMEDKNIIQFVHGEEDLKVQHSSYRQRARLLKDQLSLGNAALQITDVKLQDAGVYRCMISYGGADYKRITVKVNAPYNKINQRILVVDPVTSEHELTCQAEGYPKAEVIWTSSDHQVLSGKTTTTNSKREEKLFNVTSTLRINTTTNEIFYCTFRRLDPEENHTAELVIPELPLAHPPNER
T1 sequence (Q04609 whole entry): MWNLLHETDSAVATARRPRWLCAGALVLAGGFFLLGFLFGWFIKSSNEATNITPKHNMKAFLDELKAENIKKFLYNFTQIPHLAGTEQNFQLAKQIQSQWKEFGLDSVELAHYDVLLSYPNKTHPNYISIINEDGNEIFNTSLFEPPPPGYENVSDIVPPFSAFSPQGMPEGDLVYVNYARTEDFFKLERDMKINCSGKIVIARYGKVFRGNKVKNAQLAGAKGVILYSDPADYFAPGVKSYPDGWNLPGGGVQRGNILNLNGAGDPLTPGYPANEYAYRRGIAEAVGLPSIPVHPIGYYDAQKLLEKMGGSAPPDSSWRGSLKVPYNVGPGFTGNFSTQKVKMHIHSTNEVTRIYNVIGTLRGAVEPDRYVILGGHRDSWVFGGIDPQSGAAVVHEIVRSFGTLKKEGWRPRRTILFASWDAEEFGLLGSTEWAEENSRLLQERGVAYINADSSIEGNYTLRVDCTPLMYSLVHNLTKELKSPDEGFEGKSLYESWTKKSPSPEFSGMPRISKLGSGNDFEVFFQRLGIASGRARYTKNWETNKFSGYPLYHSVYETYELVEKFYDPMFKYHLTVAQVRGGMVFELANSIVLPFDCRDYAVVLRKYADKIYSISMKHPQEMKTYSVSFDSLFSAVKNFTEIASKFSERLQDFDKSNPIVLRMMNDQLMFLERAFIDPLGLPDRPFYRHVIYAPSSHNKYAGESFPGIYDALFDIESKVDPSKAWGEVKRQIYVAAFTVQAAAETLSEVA

Row | Binder | EC50 (hCTLA4) | EC50 (hPDL1) | EC50 [2] | cytotoxic activity against Lncap, EC50 (LDH release, PBMC E:T 10:1, 48 h) [1] | cytotoxic activity against Lncap, Maximum lysis rate % [1]
1 | 2-F2 (bispecific antibody) heavy 1: not shown light 1: EIVLTQSPDFQSVTPKEKVTITCSASSSVSHMYWYQQKPDQSPKLLIYRTSNLASGVPSRFSGSGSGTDFTLTINSLEAEDAATYYCQQYHSYPLMFGQGTKLEIKRTVAAPSVFIFPPSDEQLKSGTASVVCLLNNFYPREAKVQWKVDNALQSGNSQESVTEQDSKDSTYSLSSTLTLSKADYEKHKVYACEVTHQGLSSPVTKSFNRGEC heavy 2: not shown light 2: not shown | – | – | – | 0.0084 nM | 48.7%
2 | PL-5 (bispecific antibody) chain 1: not shown chain 2: DIVLTQSPASLAVSPGQRATITCRASESVSIHGTHLMHWYQQKPGQPPKLLIYAASKLESGVPARFSGSGSGTDFTLTINPVEAEDTANYYCQQSFEDPLTFGQGTKLEIKGGGGSGIPPKIECLPIDISIDEGKVLTVASAFTGEPTPEVTWSTGGRKIHSQEQGRFHIENTDDSTTLTIKDVQKQDGGLYTLTLRNEFGSDSATVNIHIRSI chain 3: not shown chain 4: not shown | 6.7 nM | 0.7 nM | – | – | –
3 | PL-4 (bispecific antibody) chain 1: not shown chain 2: DIVLTQSPASLAVSPGQRATITCRASESVSIHGTHLMHWYQQKPGQPPKLLIYAASKLESGVPARFSGSGSGTDFTLTINPVEAEDTANYYCQQSFEDPLTFGQGTKLEIKGGGGSGIPPKIECLPIDISIDEGKVLTVASCFTGEPTPEVTWSTGGRKIHSQEQGRFHIENTDDSTTLTIKDVQKQDGGLYTLTLRNEFGSDSATVNIHIRSI chain 3: not shown chain 4: not shown | 6.5 nM | 0.7 nM | – | – | –
4 | PL-2 (bispecific antibody) chain 1: not shown chain 2: DIVLTQSPASLAVSPGQRATITCRASESVSIHGTHLMHWYQQKPGQPPKLLIYAASKLESGVPARFSGSGSGTDFTLTINPVEAEDTANYYCQQSFEDPLTFGQGTKLEIKGGGGSGIPPKIECLPIDISIDEGKVLTVASAFTGEPTPEVTWSTGGRKIHSQEQGRFHIENTDDSTTLTIKDVQKQDGGLYTLTLRNEFGSDSATVNIHIRSI chain 3: not shown chain 4: not shown | 8 nM | 0.5 nM | – | – | –
5 | PL-10 (bispecific antibody) chain 1: not shown chain 2: DIVLTQSPASLAVSPGQRATITCRASESVSIHGTHLMHWYQQKPGQPPKLLIYAASKLESGVPARFSGSGSGTDFTLTINPVEAEDTANYYCQQSFEDPLTFGQGTKLEIKGGGGSGIPPKIECLPIDISIDEGKVLTVASCFTGEPTPEVTWSTGGRKIHSQEQGRFHIENTDDSTTLTIKDVQKQDGGLYTLTLRNEFGSDSATVNIHIRSI chain 3: not shown chain 4: not shown | 6.9 nM | 0.6 nM | – | – | –
6 | PL-8 (bispecific antibody) chain 1: not shown chain 2: DIVLTQSPASLAVSPGQRATITCRASESVSIHGTHLMHWYQQKPGQPPKLLIYAASKLESGVPARFSGSGSGTDFTLTINPVEAEDTANYYCQQSFEDPLTFGQGTKLEIKGGGGSGIPPKIECLPIDISIDEGKVLTVASAFTGEPTPEVTWSTGGRKIHSQEQGRFHIENTDDSTTLTIKDVQKQDGGLYTLTLRNEFGSDSATVNIHIRSI chain 3: not shown chain 4: not shown | 14.5 nM | 1.4 nM | – | – | –
7 | PL-7 (bispecific antibody) chain 1: not shown chain 2: DIVLTQSPASLAVSPGQRATITCRASESVSIHGTHLMHWYQQKPGQPPKLLIYAASKLESGVPARFSGSGSGTDFTLTINPVEAEDTANYYCQQSFEDPLTFGQGTKLEIKGGGGSGIPPKIECLPIDISIDEGKVLTVASCFTGEPTPEVTWSTGGRKIHSQEQGRFHIENTDDSTTLTIKDVQKQDGGLYTLTLRNEFGSDSATVNIHIRSI chain 3: not shown chain 4: not shown | 7.3 nM | 0.5 nM | – | – | –
8 | PL-9 (bispecific antibody) chain 1: not shown chain 2: DIVLTQSPASLAVSPGQRATITCRASESVSIHGTHLMHWYQQKPGQPPKLLIYAASKLESGVPARFSGSGSGTDFTLTINPVEAEDTANYYCQQSFEDPLTFGQGTKLEIKGGGGSGIPPKIECLPIDISIDEGKCLTVASAFTGEPTPEVTWSTGGRKIHSQEQGRFHIENTDDSTTLTIKDVQKQDGGLYTLTLRNEFGSDSATVNIHIRSI chain 3: not shown chain 4: not shown | 5.5 nM | 0.6 nM | – | – | –
9 | PL-6 (bispecific antibody) chain 1: not shown chain 2: DIVLTQSPASLAVSPGQRATITCRASESVSIHGTHLMHWYQQKPGQPPKLLIYAASKLESGVPARFSGSGSGTDFTLTINPVEAEDTANYYCQQSFEDPLTFGQGTKLEIKGGGGSGIPPKIECLPIDISIDEGKCLTVASAFTGEPTPEVTWSTGGRKIHSQEQGRFHIENTDDSTTLTIKDVQKQDGGLYTLTLRNEFGSDSATVNIHIRSI chain 3: not shown chain 4: not shown | 5.3 nM | 0.8 nM | – | – | –
10 | PL-1 (bispecific antibody) chain 1: not shown chain 2: DIVLTQSPASLAVSPGQRATITCRASESVSIHGTHLMHWYQQKPGQPPKLLIYAASKLESGVPARFSGSGSGTDFTLTINPVEAEDTANYYCQQSFEDPLTFGQGTKLEIKGGGGSGIPPKIECLPIDISIDEGKVLTVASAFTGEPTPEVTWSTGGRKIHSQEQGRFHIENTDDLTTLIIKDVQKQDGGLYTLTLRNEFGSDSATVNIHIRSI chain 3: not shown chain 4: not shown | 16.5 nM | 1.6 nM | – | – | –
11 | PL-3 (bispecific antibody) chain 1: not shown chain 2: DIVLTQSPASLAVSPGQRATITCRASESVSIHGTHLMHWYQQKPGQPPKLLIYAASKLESGVPARFSGSGSGTDFTLTINPVEAEDTANYYCQQSFEDPLTFGQGTKLEIKGGGGSGIPPKIECLPIDISIDEGKCLTVASAFTGEPTPEVTWSTGGRKIHSQEQGRFHIENTDDSTTLTIKDVQKQDGGLYTLTLRNEFGSDSATVNIHIRSI chain 3: not shown chain 4: not shown | 7.9 nM | 0.6 nM | – | – | –
12 | hu13H2L2 (antibody, human IgG1, kappa, V domains shown) VH: EVTLKESGPVLVKPTETLTLTCTVSGFSLSNYAISWIRQPPGKALEWLGVIWTGGGTHYNSALKSRLTISKDTSKSQVVLTMTNMDPVDTARYYCARKGNYYGSSLYYYAMNYWGQGTTVTVSS VL: DIQMTQSPSSLSASVGDRVTITCRASQDISNYLNWYQQKPDGAPKLLIYYTSRLQSGVPSRFSGSGSGTDYTLTISSLQPEDFATYYCQQGDTLPYTFGGGTKVEIKR | – | – | 1.09 µg/mL | – | –

Second part, led by results:

Row | EC50 (hCTLA4) | EC50 (hPDL1) | EC50 [2] | Binder | cytotoxic activity against Lncap, EC50 (LDH release, PBMC E:T 10:1, 48 h) [1] | cytotoxic activity against Lncap, Maximum lysis rate % [1]
13 | 3.2 nM | 1.4 nM | – | PL-15 (bispecific antibody) chain 1: not shown chain 2: DIVLTQSPASLAVSPGQRATITCRASESVSIHGTHLMHWYQQKPGQPPKLLIYAASKLESGVPARFSGSGSGTDFTLTINPVEAEDTANYYCQQSFEDPLTFGQGTKLEIKRTVASGIPPKIECLPIDISIDEGKCLTVASAFTGEPTPEVTWSTGGRKIHSQEQGRFHIENTDDSTTLTIKDVQKQDGGLYTLTLRNEFGSDSATVNIHIRSI chain 3: not shown chain 4: not shown | – | –
14 | 6.7 nM | 1.6 nM | – | PL-18 (bispecific antibody) chain 1: not shown chain 2: DIVLTQSPASLAVSPGQRATITCRASESVSIHGTHLMHWYQQKPGQPPKLLIYAASKLESGVPARFSGSGSGTDFTLTINPVEAEDTANYYCQQSFEDPLTFGQGTKLEIKRTVASGIPPKIECLPIDISIDEGKCLTVASAFTGEPTPEVTWSTGGRKIHSQEQGRFHIENTDDSTTLTIKDVQKQDGGLYTLTLRNEFGSDSATVNIHIRSI chain 3: not shown chain 4: not shown | – | –
15 | 6.2 nM | 1.4 nM | – | PL-17 (bispecific antibody) chain 1: not shown chain 2: DIVLTQSPASLAVSPGQRATITCRASESVSIHGTHLMHWYQQKPGQPPKLLIYAASKLESGVPARFSGSGSGTDFTLTINPVEAEDTANYYCQQSFEDPLTFGQGTKLEIKRTVASGIPPKIECLPIDISIDEGKVLTVASAFTGEPTPEVTWSTGGRKIHSQEQGRFHIENTDDSTTLTIKDVQKQDGGLYTLTLRNEFGSDSATVNIHIRSI chain 3: not shown chain 4: not shown | – | –
16 | 6.5 nM | 1.6 nM | – | PL-19 (bispecific antibody) chain 1: not shown chain 2: DIVLTQSPASLAVSPGQRATITCRASESVSIHGTHLMHWYQQKPGQPPKLLIYAASKLESGVPARFSGSGSGTDFTLTINPVEAEDTANYYCQQSFEDPLTFGQGTKLEIKRTVASGIPPKIECLPIDISIDEGKVLTVASCFTGEPTPEVTWSTGGRKIHSQEQGRFHIENTDDSTTLTIKDVQKQDGGLYTLTLRNEFGSDSATVNIHIRSI chain 3: not shown chain 4: not shown | – | –
17 | 5.6 nM | 0.6 nM | – | PL-11 (bispecific antibody) chain 1: not shown chain 2: DIVLTQSPASLAVSPGQRATITCRASESVSIHGTHLMHWYQQKPGQPPKLLIYAASKLESGVPARFSGSGSGTDFTLTINPVEAEDTANYYCQQSFEDPLTFGQGTKLEIKRTVASGIPPKIECLPIDISIDEGKVLTVASAFTGEPTPEVTWSTGGRKIHSQEQGRFHIENTDDSTTLTIKDVQKQDGGLYTLTLRNEFGSDSATVNIHIRSI chain 3: not shown chain 4: not shown | – | –
18 | – | – | 0.947 µg/mL | hu13H1L1 (antibody, human IgG1, kappa, V domains shown) VH: EVTLKESGPVLVKPTETLTLTCTVSGFSLSNYAISWIRQPPGKALEWLAVIWTGGGTHYNSALKSRLTISKDTSKSQVVLTMTNMDPVDTATYYCARKGNYYGSSLYYYAMNYWGQGTTVTVSS VL: DIQMTQSPSSLSASVGDRVTITCRASQDISNYLNWYQQKPGKAPKLLIYYTSRLQSGVPSRFSGSGSGTDFTLTISSLQPEDFATYYCQQGDTLPYTFGGGTKVEIKR | – | –
19 | – | – | 0.981 µg/mL | hu13H1L2 (antibody, human IgG1, kappa, V domains shown) VH: EVTLKESGPVLVKPTETLTLTCTVSGFSLSNYAISWIRQPPGKALEWLAVIWTGGGTHYNSALKSRLTISKDTSKSQVVLTMTNMDPVDTATYYCARKGNYYGSSLYYYAMNYWGQGTTVTVSS VL: DIQMTQSPSSLSASVGDRVTITCRASQDISNYLNWYQQKPDGAPKLLIYYTSRLQSGVPSRFSGSGSGTDYTLTISSLQPEDFATYYCQQGDTLPYTFGGGTKVEIKR | – | –

Reference: patent US20250043022A1 (JIANGSU HENGRUI PHARMACEUTICALS, published 2025)
